Test results from patent US7122646.

How the values were obtained:
hen egg lysozyme (hen) [1] = biological target: hen egg lysozyme (hen) (UniProt P00698); assay: BIAcore, HEL coated chip
hen egg lysozyme (hen) [2] = biological target: hen egg lysozyme (hen) (UniProt P00698); assay: phage ELISA with 50 µl phage supernatant, sheep anti-M13 detection; background 0.1

Chain of UniProt P00698 (P00698 19-147 limits assumed): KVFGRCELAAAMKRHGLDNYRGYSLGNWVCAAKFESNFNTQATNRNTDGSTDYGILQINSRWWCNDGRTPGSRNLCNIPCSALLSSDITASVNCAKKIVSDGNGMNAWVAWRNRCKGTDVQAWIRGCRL

Work on “bispecific NQ11/D1.3 diabody, construct VI, 5 residue linkers (bispecific antibody)” yielded a koff (hen egg lysozyme (hen) [1]) of 0.0022 s⁻¹.

chimaeric D1.3 Fab fragment was tested, and the koff (hen egg lysozyme (hen) [1]) was 0.003 s⁻¹.

“NQ11/D1.3/0 bispecific diabody displayed on the surface of phage (bispecific antibody)” was tested, and the absorbance signal (hen egg lysozyme (hen) [2]) was 2.8.
